Measured values reported in patent publication US20260092097A1 (published 2026).

Molecular target: T1, p53 peptide on HLA-A*02:01 (human)
T1 peptide: STPPPGTRV
Test: binding, other

B1: c149scTCR (TCR, V domains shown)
Valpha: QKVTQTQTSISVMEKTTVTMDCVYETRDSSYFLFWYKQTASGEIVFLIRQDSYKKENATEGHYSLNFQKPKSSIGLIITATQIEDSAVYFCAMRDTNAYKVIFGKGTHLHVLP
Vbeta: EAAVTQSPRSKVAVTGGKVTLSCHQTNNHDYMYWYRQDTGHGLRLIHYSYVADSTEKGDIPDGYKASRPSQENFSLILELASLSQTAVYFCASSPHSYEQYFGPGTRLTVL
- binding result: recognises
